Measurements from PMC4900677.

Tested on: T1, IFI16 (Homo sapiens), Q16666-2
T1 sequence: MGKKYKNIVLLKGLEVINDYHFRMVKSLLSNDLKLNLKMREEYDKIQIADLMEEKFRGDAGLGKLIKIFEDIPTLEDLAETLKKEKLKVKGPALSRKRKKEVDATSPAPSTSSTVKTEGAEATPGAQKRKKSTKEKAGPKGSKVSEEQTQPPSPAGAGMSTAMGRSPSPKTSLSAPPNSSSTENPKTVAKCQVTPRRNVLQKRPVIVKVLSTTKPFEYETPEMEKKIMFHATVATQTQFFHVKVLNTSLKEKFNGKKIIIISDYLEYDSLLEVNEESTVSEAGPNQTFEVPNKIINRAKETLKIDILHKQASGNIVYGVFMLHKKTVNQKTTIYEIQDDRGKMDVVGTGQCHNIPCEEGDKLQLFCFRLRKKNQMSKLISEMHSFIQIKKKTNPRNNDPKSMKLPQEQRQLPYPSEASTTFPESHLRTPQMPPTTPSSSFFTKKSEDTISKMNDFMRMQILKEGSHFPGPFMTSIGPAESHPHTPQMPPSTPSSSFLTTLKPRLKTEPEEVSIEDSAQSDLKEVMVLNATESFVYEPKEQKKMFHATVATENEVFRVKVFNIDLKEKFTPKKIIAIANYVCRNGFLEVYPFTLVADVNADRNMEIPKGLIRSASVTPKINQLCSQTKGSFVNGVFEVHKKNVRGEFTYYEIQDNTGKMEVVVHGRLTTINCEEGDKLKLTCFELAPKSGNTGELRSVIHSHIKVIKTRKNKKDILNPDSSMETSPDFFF
Assay: EMSA
Conditions: EMSA: 5 mM Tris-HCl pH 7.0, 1 mM EDTA, 50 mM KCl, 0.01% Triton X-100, 4 C, 15 min; gel 0.33x TBE (native PAGE with 50 mM KCl)

Sequence | binding signal (% bound at protein:DNA 4:1)
TTGGGGCGCTTATGGGGAGGGTGGGGAGGGTGGGGAAGGTGGGGAGGAGACT (double strand) [DS NHEIII] | 50
GGGTTAGGGTTAGGGTTAGGGTTAGGGTTAGGGTTAGGGTTAGGGTTAGGG (double strand) [DS HTEL] | 50
